We go through 4 substances from US6403769.

For assay [1], the target named is keratinocyte growth factor (KGF) (human) (UniProt P21781). The assay can be described thus: 50% displacement of 125I-KGF by unlabeled KGF, fusion protein captured on Gamma Bind G (Scatchard analysis). On the technique in general: Loss of bound radioactivity is the signal in a displacement assay; it reports binding, not function.
Assay [2] deals with keratinocyte growth factor receptor (KGFR) (UniProt P21803). Briefly: cell-based or functional assay.
For assay [3] the target is unchanged. Briefly: competition with 125I-KGF on 32D cells expressing KGFR.
Assay [4] has the same target. Briefly: flow cytometry on KGFR-containing B5-589 cells and NIH 3T3 transfectants, FITC rabbit anti-mouse IgG.
The target in assay [5] is KGFR-HFc fusion protein (construct not specified). The assay can be described thus: binding of 125I-aFGF to KGFR-HFc in solution, capture on Gamma Bind G.
Assay [6] deals with keratinocyte growth factor (KGF) (human) (UniProt P21781). Briefly: comparison value for native KGFR on epithelial cells; method not described.
Assay [7] addresses bovine brain aFGF (bovine) (UniProt P03968). The assay can be described thus: comparison value for native KGFR; method not described.

Sequence of KGF-HFc fusion protein (P21781 other isoform, or with tags, fused parts or gaps limits assumed): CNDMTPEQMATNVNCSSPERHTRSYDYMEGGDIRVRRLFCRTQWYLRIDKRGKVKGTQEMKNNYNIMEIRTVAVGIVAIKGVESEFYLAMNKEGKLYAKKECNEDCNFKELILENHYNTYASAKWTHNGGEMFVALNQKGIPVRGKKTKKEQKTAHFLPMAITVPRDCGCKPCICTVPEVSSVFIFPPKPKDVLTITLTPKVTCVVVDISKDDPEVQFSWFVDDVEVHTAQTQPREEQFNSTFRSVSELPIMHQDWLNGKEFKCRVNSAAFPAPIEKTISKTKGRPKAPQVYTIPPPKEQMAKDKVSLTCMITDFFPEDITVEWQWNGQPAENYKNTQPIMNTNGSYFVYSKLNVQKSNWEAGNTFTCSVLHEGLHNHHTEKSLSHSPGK
Sequence of bovine brain aFGF (P03968 16-155 limits assumed): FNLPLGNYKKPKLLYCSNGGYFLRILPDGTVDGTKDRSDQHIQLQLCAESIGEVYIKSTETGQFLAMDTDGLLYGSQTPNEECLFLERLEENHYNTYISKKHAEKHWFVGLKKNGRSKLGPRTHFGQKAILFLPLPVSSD
Sequence of keratinocyte growth factor (KGF) (human) (P21781 32-194 limits assumed): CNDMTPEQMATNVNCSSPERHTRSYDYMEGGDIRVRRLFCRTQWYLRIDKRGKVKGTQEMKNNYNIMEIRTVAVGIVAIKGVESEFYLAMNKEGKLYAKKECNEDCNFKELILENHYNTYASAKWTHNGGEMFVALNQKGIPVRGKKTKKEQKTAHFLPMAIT
Sequence of bovine brain aFGF (bovine) (P03968 16-155 limits assumed): as the sequence (P03968 16-155 limits assumed) above

Take “D3-HFc fusion protein (from UniProt P21803 157-232; P01868 98-324)”: the Kd (usually the concentration at which binding is half-saturated) in assay [1] was 0.02 nM.
As to “KGF-HFc fusion protein (from UniProt P21781 32-194; P01868 98-324)”, in assay [2], the half-maximal stimulation of 3H-thymidine uptake in BALB/MK cells was found to be 45 pM and the stimulation of 3H-thymidine uptake in BALB/MK cells was greater than 20 fold. Besides, the Kd in assay [3] amounted to 1.4 nM. Also, in assay [4], the fold increase in fluorescent intensity compared to untransfected NIH 3T3 cells lay in the range of 10 to 100 fold.
With “bovine brain aFGF (from UniProt P03968 16-155) (ligand)”, the ligand concentration at which saturable binding was achieved in assay [5] is 40 to 50 ng/mL.
As for “keratinocyte growth factor receptor (KGFR) (from UniProt P21803 22-821)”, the equilibrium dissociation constant (Kd) is 0.18 nM in assay [6] and 0.6 nM in assay [7].
